Publication PMC11931385, “Structural and functional analysis of cancer-associated missense variants in the retinoblastoma protein pocket domain” (The Journal of Biological Chemistry, 2025)
No end group written: not given here. TMR = tetramethyl rhodamine dye

T1: Rb^P E554K (human, UniProt P06400 380-788, E554K)
T1 construct: also called variant 28
T1 sequence (looked up): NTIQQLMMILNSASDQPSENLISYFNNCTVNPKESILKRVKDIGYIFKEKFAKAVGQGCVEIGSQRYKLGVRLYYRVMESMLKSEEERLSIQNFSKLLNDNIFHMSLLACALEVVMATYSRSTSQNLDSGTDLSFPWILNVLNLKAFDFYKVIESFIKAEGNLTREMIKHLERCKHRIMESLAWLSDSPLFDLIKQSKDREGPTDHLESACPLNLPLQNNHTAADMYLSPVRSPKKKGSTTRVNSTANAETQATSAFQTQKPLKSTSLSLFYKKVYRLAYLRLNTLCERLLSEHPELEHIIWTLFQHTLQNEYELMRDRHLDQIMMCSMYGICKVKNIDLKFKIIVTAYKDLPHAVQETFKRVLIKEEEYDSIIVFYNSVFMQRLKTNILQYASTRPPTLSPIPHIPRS

T2: Rb^P S751C (human, UniProt P06400 380-788, S751C)
T2 construct: also called variant 71
T2 sequence (looked up): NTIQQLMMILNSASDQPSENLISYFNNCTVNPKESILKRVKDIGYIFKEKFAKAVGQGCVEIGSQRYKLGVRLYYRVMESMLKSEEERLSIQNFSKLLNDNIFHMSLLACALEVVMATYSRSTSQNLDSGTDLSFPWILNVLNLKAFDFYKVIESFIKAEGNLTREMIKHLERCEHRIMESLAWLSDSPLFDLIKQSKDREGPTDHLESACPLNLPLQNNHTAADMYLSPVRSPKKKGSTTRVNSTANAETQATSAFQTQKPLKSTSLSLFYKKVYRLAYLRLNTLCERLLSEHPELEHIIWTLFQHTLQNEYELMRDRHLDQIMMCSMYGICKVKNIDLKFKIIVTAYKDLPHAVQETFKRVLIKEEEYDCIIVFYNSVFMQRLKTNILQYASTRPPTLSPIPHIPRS

T3: Rb^P H673Y (human, UniProt P06400 380-788, H673Y)
T3 construct: also called variant 55
T3 sequence (looked up): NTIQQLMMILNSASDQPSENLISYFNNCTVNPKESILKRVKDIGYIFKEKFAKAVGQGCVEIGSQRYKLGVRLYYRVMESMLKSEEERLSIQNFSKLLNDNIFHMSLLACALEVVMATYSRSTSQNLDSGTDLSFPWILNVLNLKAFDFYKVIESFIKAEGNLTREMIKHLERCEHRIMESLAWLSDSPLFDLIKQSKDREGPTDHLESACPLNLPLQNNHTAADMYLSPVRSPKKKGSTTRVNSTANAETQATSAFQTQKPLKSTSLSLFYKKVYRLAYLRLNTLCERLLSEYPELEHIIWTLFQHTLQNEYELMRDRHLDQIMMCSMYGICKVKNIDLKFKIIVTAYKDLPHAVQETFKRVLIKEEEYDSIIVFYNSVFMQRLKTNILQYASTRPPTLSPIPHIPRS

T4: Rb^P K530I (human, UniProt P06400 380-788, K530I)
T4 construct: also called variant 21
T4 sequence (looked up): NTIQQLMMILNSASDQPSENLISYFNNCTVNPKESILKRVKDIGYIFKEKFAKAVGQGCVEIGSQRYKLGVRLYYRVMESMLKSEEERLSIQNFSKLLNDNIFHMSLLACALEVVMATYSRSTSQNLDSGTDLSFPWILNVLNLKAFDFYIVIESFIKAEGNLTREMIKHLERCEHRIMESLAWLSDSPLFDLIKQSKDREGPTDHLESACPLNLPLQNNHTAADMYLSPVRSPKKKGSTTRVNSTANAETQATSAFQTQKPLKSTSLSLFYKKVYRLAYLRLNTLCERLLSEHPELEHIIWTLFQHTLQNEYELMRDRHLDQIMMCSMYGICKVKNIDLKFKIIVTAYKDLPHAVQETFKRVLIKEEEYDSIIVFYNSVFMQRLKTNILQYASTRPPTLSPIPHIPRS

T5: Rb^P A488V (human, UniProt P06400 380-788, A488V)
T5 construct: also called variant 14
T5 sequence (looked up): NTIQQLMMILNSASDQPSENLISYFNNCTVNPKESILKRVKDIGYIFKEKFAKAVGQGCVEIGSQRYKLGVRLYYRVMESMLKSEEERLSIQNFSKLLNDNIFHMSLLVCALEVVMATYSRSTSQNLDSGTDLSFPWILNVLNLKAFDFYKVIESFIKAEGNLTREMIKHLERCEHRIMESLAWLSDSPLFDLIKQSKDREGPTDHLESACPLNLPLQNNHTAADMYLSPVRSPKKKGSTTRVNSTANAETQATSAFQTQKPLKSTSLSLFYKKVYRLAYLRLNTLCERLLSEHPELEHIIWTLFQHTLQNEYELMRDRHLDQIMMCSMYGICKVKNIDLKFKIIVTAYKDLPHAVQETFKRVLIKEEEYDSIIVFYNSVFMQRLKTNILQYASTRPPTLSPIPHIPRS


Tests used:
Settings in all cases: both partners purified
[1] = target: T1, Rb^P E554K; test: fluorescence polarisation; 25 °C after warming to 37 °C (7 min ramp, 2 min at 37 °C), 1 min on ice and 3 min at 25 °C; unlabeled Rb^P against 1.5 nM TMR-E2F1^TD or 7.5 nM TMR-E7^LxCxE; 25 mM Tris pH 8.0, 200 mM NaCl, 1 mM DTT, 0.1% Tween-20; apparent Kd
[2] = target: T2, Rb^P S751C; test: fluorescence polarisation; 37 °C, after the 25 °C reading ramped over 7 min to 37 °C and 2 min incubation; unlabeled Rb^P against 1.5 nM TMR-E2F1^TD or 7.5 nM TMR-E7^LxCxE; 25 mM Tris pH 8.0, 200 mM NaCl, 1 mM DTT, 0.1% Tween-20; apparent Kd
[3] = target: T3, Rb^P H673Y; test: as above
[4] = target: T4, Rb^P K530I; test: as above
[5] = target: T5, Rb^P A488V; test: as above

| Binder | Kd [1] | Kd [2] | Kd [3] | Kd [4] | Kd [5] |
| --- | --- | --- | --- | --- | --- |
| {TMR}-GEGIRDLFDCDFGDLTPLD (also called E2F^TD; source: synthetic peptide, bought: GenScript) [TMR-E2F1^TD, peptide of the E2F1 transactivation domain] | 1740 nM | 137 nM | 66 nM | 1680 nM | 78 nM |
| DLYCYEQLN (also: TMR label, position not given here, source: synthetic peptide, bought: GenScript) [TMR-E7^LxCxE, LxCxE peptide of the E7 oncoprotein from HPV] | 24 nM | 98 nM | 29 nM | 20 nM | 19 nM |
